From paper doi:10.1101/2023.05.22.541748
pKd: −log10 of the molar value.

Legend:
Ubc13 C87K/K92T/K94Q = Ubc13 C87K/K92T/K94Q (UniProt P61088); assay: NMR
Ubc13 = Ubc13 (UniProt P61088); assay: NMR titration
Sequence of Ubc13 (P61088 whole entry): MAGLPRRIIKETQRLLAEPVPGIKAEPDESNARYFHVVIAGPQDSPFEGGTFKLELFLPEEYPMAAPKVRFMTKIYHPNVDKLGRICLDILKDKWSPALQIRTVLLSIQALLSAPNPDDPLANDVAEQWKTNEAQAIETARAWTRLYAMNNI

Sequence of Ubc13 C87K/K92T/K94Q (P61088 whole entry C87K/K92T/K94Q): as the sequence (P61088 whole entry) above, with C87K, K92T, K94Q counted along it

ubiquitin (wild type, Q40Ub) (from UniProt P0CG48 1-76) (natural protein)
population of the closed state of the conjugate (Ubc13 C87K/K92T/K94Q): 60% | population of the closed state of the conjugate with RNF38 RING (Ubc13 C87K/K92T/K94Q): 80%

RNF38 RING domain (residues 387-465) (domain or fragment)
pKd (Ubc13): 4.26
